# Key:
# Assay type in all cases: in vivo
# [1] = test system: mouse CIA model (DBA1/J mice); assay: Mouse collagen induced arthritis (CIA) model, therapeutic protocol; conditions: 10 mg/kg, 3x week, i.p., day 31 to day 46
# Procedure: (§1) DBA1/J mice (male, 6-7 weeks old, approx 20 gram) were obtained from Centre d'Elevage Regional Janvier (Laval, France). Mice were kept on a 12 hr light/dark cycle (0700-1900). Temperature was maintained at 22° C., and food and water were provided ad libitum.
# One day before the experiment, CII solution (2 mg/mL) was prepared with 0.05 M acetic acid and stored at 4° C. Just before the immunization, equal volumes of adjuvant […] and CII were mixed by a homogenizer in a pre-cooled glass bottle in an ice water bath. Extra adjuvant and prolonged homogenization may be required if an emulsion is not formed. 0.1 mL of the emulsion was injected intradermally at the base of the tail of each mouse on day 1, a second booster intradermal injection (CII solution at 2 mg/mL in […] 0.1 mLemulsion) was performed on day 21. This immunization method was modified from published methods (Brand et al, 2007, Collagen-induced arthritis. Nature Protocols; vol 2 (5): 1269-1275; Lin et al., 2007, Anti-rheumatic activities of histone deacetylase (HDAC) inhibitors in vivo in collagen-induced arthritis in rodents. Br J Pharmacol. April; 150 (7):829-31).
# The therapeutic effects of the antibodies were tested in the mouse CIA model. Mice were randomly divided into equal groups and each group contained 10 mice. All mice were immunized on day 1 and boosted on day 21. Therapeutic dosing lasted from day 31 to day 46. The negative control group was treated with vehicle (PBS) and the positive control group with Enbrel (10 mg/kg, 3× week, i.p.). An antibody of interest was tested at 10 mg/kg, i.p. 3 times per week.
# Anti-IL17C antibodies were administered i.p. three times a week at 10 mg/kg. […]
# (§2) Arthritis was scored according to the method of Khachigian 2006 (Collagen antibody-induced arthritis. (2006) Nature Protocols 1, 2512-6), Lin et al 2007 (supra); Nishida et al. 2004 (Histone deacetylase inhibitor suppression of autoantibody-mediated arthritis in mice via regulation of p16INK4a and p21(WAF1/Cip1) expression. Arthritis Rheum. 10: 3365-76); and Brand et al. 2007 (supra). […]
# [2] = test system: BALB/c female mice, LPS-induced acute lung neutrophilia; assay: Intranasal instillation of LPS, mouse model of acute lung neutrophilia; conditions: single treatment 5 mg/kg i.p. 24 hours before LPS instillation; BAL 24 hours after LPS
# Procedure: Two independent studies were conducted with one negative mAb and two positive mAbs in the intranasal instillation of Lipopolysaccharide (LPS) mouse model of acute lung neutrophilia, a model which mimics some relevant aspects of COPD (Chronic Obstructive Pulmonary Disease). The effects were measured by Broncho Alveolar Lavage (BAL) inflammatory cell counting.
# Several groups of mice were treated with different antibodies and Dexamethasone and compared to the mice subjected to LPS only.
# BALB/c female mice from Harlan (France) were used in the study. Mice weight was around 20 g.
# Mice were anesthetized by isoflurane inhalation. During the breathing, LPS was instilled intranasally. After 24 h, mice were anesthetized intra-peritoneally (IP) and Broncho Alveolar Lavage procedure was performed. Mice were anesthetized by injection of anaesthetic solution of 0.1 mL per 10 g of the mouse weight. The anaesthetic solution was composed of 18 ml 0.9% NaCl, 0.5 mL xylazine (5 mg/Kg) and 1.5 mL ketamine (75 mg/Kg).
# The trachea was exposed through midline incision and canulated (with a mice catheter). BAL was performed twice using 1 mL of sterile PBS buffer. […] The cells were counted using a cell counter (Vet abc, France). […]
# For all groups, BAL was performed 24 hours after LPS administration and cell counts were measured.
# The results were analyzed using Student t-test. […]
# [3] = test system: mouse CIA model (DBA1/J mice); assay: Mouse collagen induced arthritis (CIA) model, preventative protocol; conditions: 10 mg/kg, 3x week, i.p., day 21 to day 46
# Procedure: as §1
# One day before the experiment, CII solution (2 mg/mL) was prepared with 0.05 M acetic acid and stored at 4° C. Just before the immunization, equal volumes of adjuvant […] and CII were mixed by a homogenizer in a pre-cooled glass bottle in an ice water bath. Extra adjuvant and prolonged homogenization may be required if an emulsion is not formed. 0.1 mL of the emulsion was injected intradermally at the base of the tail of each mouse on day 1, a second booster intradermal injection (CII solution at 2 mg/mL in […] 0.1 mLemulsion) was performed on day 21. […]
# as §2
molecule,measurement,setting,value
"MOR12762: anti-mouse IL17C HuCAL antibody; CDRs SEQ ID NO: 171-176, VL 177, VH 178; human/mouse chimeric IgG2a (antibody, V domains shown, mouse IgG2a constant regions; VH; VL) VH: EVQLVQSGAEVKKPGESLKISCKGSGYSFNNYWIAWVRQMPGKGLEWMGFIYPSNSATQYSPSFQGQVTISADKSISTAYLQWSSLKASDTAMYYCARDNEYSDSYFDVWGQGTLVTVSS VL: DIVLTQSPATLSLSPGERATLSCRASQIVSSYLAWYQQKPGQAPRLLIYDASSRATGIPARFSGSGSGTDFTLTISSLEPEDFAVYYCQQSEQVPTTFGQGTKVEIKRT",inhibition of inflammation / disease progression (clinical score),[1],significant inhibition
same,inhibition of the recruitment of inflammatory cells into the BALF,[2],inhibited significantly
same,inhibition of bone degradation / bone erosion (Larsen score),[3],significant inhibition
same,inhibition of inflammation (clinical score),[3],significant inhibition
